Measurements reported in paper PMC7999107.

Legend:
Settings in all cases: reference: wild type mice; sites S89
14-3-3 epsilon (14-3-3ε) [1] = target: 14-3-3 epsilon (14-3-3ε) (UniProt P62259); assay: anti-14-3-3ε IP, p300 immunoblot
14-3-3 epsilon (14-3-3ε) [2] = target: 14-3-3 epsilon (14-3-3ε) (UniProt P62259); assay: anti-p300 IP, 14-3-3ε immunoblot
β-catenin = β-catenin (UniProt Q02248); assay: anti-p300 IP, β-catenin immunoblot, nuclear extract

binding against the reference (14-3-3 epsilon (14-3-3ε) [1]): weaker
binding against the reference (14-3-3 epsilon (14-3-3ε) [2]): weaker
binding against the reference (β-catenin): weaker
Substance: p300 (from UniProt B2RWS6) p300 S89A knock-in mice
